Assay results as given in patent publication US20210032351A1 (XDCEXPLORER SHANGHAI, published 2021).

Key:
[1] = target: T1, human EGFRvIII-hFc protein (human, UniProt P00533 25-645); test: ELISA, coated EGFRvIII-hFc, antibody 0.0001 nM
T1 construct: extracellular domain; made in HEK293 cells, purified on protein A; also called immunogen A; hFc-tagged EGFRvIII protein; not shown: human IgG Fc fragment (hFc) of the pCpC vector
Procedure: (§1) The purified immunogen A (EGFRvIII-hFc) obtained in example 1 (for the preparation method, see step (I) in example 1) is diluted with PBS to a final concentration of 1.0 μg/mL, and then added to a 96-well ELISA plate at 100 μl/well. The plate is sealed with a plastic film and incubated at 4° C. overnight. The next day, the plate is washed twice with a plate washing solution [PBS+0.01% (v/v) Tween20], and added with a blocking solution [PBS+0.01% (v/v) Tween20+1% (w/w) BSA] for blocking 2 hours at room temperature. The blocking solution is discarded, and the purified EGFRvIII antibody obtained in example 2 is added at 100 μl/well. The plate is incubated for 2 hours at 37° C., and then washed 3 times with the plate washing solution [PBS+0.01% (v/v) Tween20]. The plate is added with an HRP (horseradish peroxidase) labeled secondary antibody (purchased from Sigma), incubated at 37° C. for 2 hours, and then washed 3 times with the plate washing solution [PBS+0.01% (v/v) Tween20]. The plate is added with 100 μl of TMB substrate/well, incubated for 30 minutes at room temperature, and then added with 100 μl of stopping solution (1.0N HCl)/well. A450 nm value is read using an ELISA plate reader (SpectraMax 384plus, purchased from Molecular Device), and the results are shown in FIG. 6 and table 10.

[2] = target: T1, human EGFRvIII-hFc protein; test: ELISA, coated EGFRvIII-hFc, antibody 1 nM
Procedure: as §1

[3] = target: T1, human EGFRvIII-hFc protein; test: ELISA, coated EGFRvIII-hFc, antibody 0.001 nM
Procedure: as §1

[4] = target: T1, human EGFRvIII-hFc protein; test: ELISA, coated EGFRvIII-hFc, antibody 10 nM
Procedure: as §1

[5] = target: T2, human EGFR protein (wild-type), on cells (human, UniProt P00533 25-1210); test: FACS on U87MG and HEB cells
T2 construct: whole, on cells; transfected on CHO-K1 cells; endogenous on the human cell lines; the cell is named under assay; also called wild-type EGFR; hEGFR
Procedure: (§2) The collected cells are suspended to 2×10⁶ cells/mL with an FACS buffer (HBSS+1% BSA, with the percentage being the mass percentage), added to a 96-well FACS reaction plate at 100 μL/well, then added with 100 μL/well of the purified EGFRvIII antibody (samples to be tested) obtained in example 2, and incubated on ice for 2 hours. The plate is centrifugally washed twice with the FACS buffer, added with 100 μL/well of a fluorescence (Alexa 488) labeled secondary antibody (purchased from Invitrogen), and then incubated on ice for 1 hour. The plate is centrifugally washed 3 times with the FACS buffer, added with 100 μL/well of a fixing solution [4% (v/v) paraformaldehyde] for suspending the cells, and centrifugally washed twice with the FACS buffer after 10 minutes. The cells are suspended in 100 μL of the FACS buffer, and the results are detected and analyzed by FACS (FACS Calibur, purchased from BD). Data analysis is performed by using the software (CellQuest) to obtain the mean fluorescence intensity (MFI) of the cells. Data is further analyzed by using the software (GraphPad Prism5) to perform data fitting and calculate EC50. […] A431 cells (human epidermal cell cancer cell lines) have a large amount of wild-type EGFR protein expressed on the surface thereof. […] U87MG cells (human glioma cell lines) have a small amount of wild-type EGFR protein expressed on the surface thereof, while HEB cells (human glioma cell lines) have a high level of wild-type EGFR protein expression on the surface thereof.

[6] = target: T1, human EGFRvIII-hFc protein; test: ELISA, coated EGFRvIII-hFc, antibody 0.1 nM
Procedure: as §1

[7] = target: T1, human EGFRvIII-hFc protein; test: ELISA, coated EGFRvIII-hFc, antibody 100 nM
Procedure: as §1

[8] = target: T1, human EGFRvIII-hFc protein; test: ELISA, coated EGFRvIII-hFc, antibody 0.01 nM
Procedure: as §1

[9] = target: T3, human EGFRvIII protein on the cell surface (human, UniProt P00533 25-1210); test: FACS on CHOk1-EGFRvIII cells
T3 construct: whole, on cells; the cell line is named under assay; also called hEGFRvIII; U87MG-hEGFRvIII
Procedure: The desired cells are subjected to an expanded culture to 90% confluence in a T-75 cell culture flask; the medium is sucked out, and the cells are washed twice with a HBSS buffer (Hanks Balanced Salt Solution) (purchased from Invitrogen), and then treated with an enzyme-free cell dissociation solution (Versene solution: purchased from Life Technology) and collected. The cells are washed twice with the HBSS buffer and are counted, and then the cells are diluted with the HBSS buffer to 2×10⁶ cells/ml, added with 1% goat serum blocking solution, with the percentage being the mass percentage, and incubated on ice for 30 minutes, and then centrifugally washed twice with the HBSS buffer. The collected cells are suspended to 2×10⁶ cells/mL with an FACS buffer (HBSS+1% BSA, with the percentage being the mass percentage), added to a 96-well FACS reaction plate at 100 μL/well, then added with 100 μL/well of the purified EGFRvIII antibody (samples to be tested) obtained in example 2, and incubated on ice for 2 hours. The plate is centrifugally washed twice with the FACS buffer, added with 100 μL/well of a fluorescence (Alexa 488) labeled secondary antibody (purchased from Invitrogen), and then incubated on ice for 1 hour. The plate is centrifugally washed 3 times with the FACS buffer, added with 100 μL/well of a fixing solution [4% (v/v) paraformaldehyde] for suspending the cells, and centrifugally washed twice with the FACS buffer after 10 minutes. The cells are suspended in 100 μL of the FACS buffer, and the results are detected and analyzed by FACS (FACS Calibur, purchased from BD). Data analysis is performed by using the software (CellQuest) to obtain the mean fluorescence intensity (MFI) of the cells. Data is further analyzed by using the software (GraphPad Prism5) to perform data fitting and calculate EC50. […] A431 cells (human epidermal cell cancer cell lines) have a large amount of wild-type EGFR protein expressed on the surface thereof.

[10] = target: T4, human wild-type EGFR protein on the cell surface (human, UniProt P00533 25-1210); test: FACS on CHOk1-EGFR cells
T4 construct: whole, on cells; Endogenous on A431, HEB, U87MG cells and normal human primary hepatocytes; transfected on CHOk1-EGFR cells; The cell is named under assay; also called A431; HEB
Procedure: as §2, with “The cells are washed twice with the HBSS buffer and are counted, and then the cells are diluted with the HBSS buffer to 2×10⁶ cells/ml, added with 1% goat serum blocking solution, with the percentage being the mass percentage, and incubated on ice for 30 minutes, and then centrifugally washed twice with the HBSS buffer. The collected” for “The collected”

[11] = target: T5, human EGFRvIII-hFc protein (human, UniProt P00533 25-645); test: ELISA, EGFRvIII-hFc coated
T5 construct: extracellular domain; also called immunogen A; hFc-tagged EGFRvIII protein; not shown: human IgG Fc fragment (hFc) of the pCpC vector
Procedure: as §1, with “temperature. […]” for “temperature. The blocking solution is discarded, and the purified EGFRvIII antibody obtained in example 2 is added at 100 μl/well.”, “FIG. 11” for “FIG. 6”, “table 19.” for “table 10.”

Binder | OD450 nm [1] | OD450 nm [2] | OD450 nm [3] | OD450 nm [4] | binding result [5] | OD450 nm [6] | OD450 nm [7] | OD450 nm [8] | EC50 [9] | Maximum mean fluorescence intensity [9] | EC50 [10] | Maximum mean fluorescence intensity [10] | EC50 [11] | Maximum OD450 value [11]
Murine anti-53D8 (antibody, V domains shown, murine hybridoma antibody; also called 53D8H4) VH: QVQLQQSGAELARPGASVKMSCKASGYTFTSYTMHWVKQRPGQGLEWIGYINPSSGYTKYNQIFKDKATLTADKSSSTAYMQLSSLTSEDSAVYYCTRGGGRGFAYWGQGTLVTVSA VL: DILMTQSPSSMSVSLGDTVSITCHASQDINSNIGWLQQKPGKSFKGLIYHGTNLEDGVPSRFSGSGSGADYSLTISSLESEDFADYYCVQYAQFPFTFGSGTKLEIK | 0.09 | 3.2 | 0.1 | 3.69 | no binding | 0.64 | 3.72 | 0.16 |  |  |  |  |  | 
Murine anti-56F10 (antibody, V domains shown, murine hybridoma antibody; also called 56F10G2) VH: EVQLQQSGAELVKPGASVKLSCTASGFNIKDFYMHWVKQRTEQGLEWIGRIDPEDGETKYAPKFQGKATITADTSSNTAYLQLSSLTSEDTAVYYCGCRTGGFAYWGQGTLVTVSA VL: QIVLTQSPAIMSASPGEKVTMTCSASSSVSYLYWYQQKPGSSPSLLIYDTSNLASGVPVRFSGSGSGTSYSLTISRMEAEDAATYYCQQWSRNPWTFGGGTKLEIK | 0.09 | 0.98 | 0.1 | 3.53 | no binding | 0.18 | 3.61 | 0.11 |  |  |  |  |  | 
Murine anti-59G3 (antibody, V domains shown, murine hybridoma antibody; also called 59G3F12) VH: DVQLQESGPGLVKPSQSLSLTCSVTGYSITSGYYWHWIRQFPENKLEWMGYISYDGSNIYNPSLKNRISITRDTSKNQFFLKLNSVTTEDTATYYCAINSDYALDYWGQGTSVTVSS VL: QIVLTQSPAIMSASPGEKVTMTCSASSSVSYMYWYQQKPGSSPRLLIYDTSNLASGVPVRFSGSGSGTSYSLTISRMEAEDAATYYCQQWSSYSLTFGAGTKLELK | 0.08 | 2.68 | 0.08 | 3.67 | no binding | 0.49 | 3.71 | 0.13 |  |  |  |  |  | 
c75G7C6-3 (antibody, human IgG1, V domains shown, Chimeric 75G7C6 with DG of heavy chain CDR3 mutated to EG; Human IgG1/kappa; also called mutant chimeric antibody DG/EG) VH: EVQLQQSGPELVKPGASVKIPCKASGYTFTDYNMDWVKQSHGKSLEWIGDINPNNGDTIYNQKFKGKATLTVDKSSSTAYMELRSLTSEDTAVYYCARGDYEGYYPVYYAMDYWGQGTSVTVSS VL: ENVLTQSPAIMSASPGEKVTMTCRASSSVSSSYLHWYQQKSGASPKLWIFSTSNLAAGVPARFSGSGSGTSYSLTVSSVEAEDAATYYCQQYSGYPLTFGAGTKLELK |  |  |  |  |  |  |  |  | 24.8 nM | 94100 MFI | 44.8 nM | 84700 MFI | 0.54 nM | 1.86 OD450
